12 molecules from patent US20160311912A1 (RINAT NEUROSCIENCE, published 2016) can be followed below.

The target of test [1] is T1, glucagon receptor (target of the KD / T½ of Tables 1A, 1B and 2B) (Homo sapiens (Human), UniProt P47871 26-136).
T1 construct: not shown: Human Fc carrier (and any linker) of the ECD-Fc fusion
The experiment in a line: not stated (column of Table 1A).

In test [2] the target is human glucagon receptor on stably transfected CHO cells (human, UniProt P47871 26-477). The experiment in a line: cell-based or functional assay.
Chain of human glucagon receptor on stably transfected CHO cells (P47871 26-477 limits assumed): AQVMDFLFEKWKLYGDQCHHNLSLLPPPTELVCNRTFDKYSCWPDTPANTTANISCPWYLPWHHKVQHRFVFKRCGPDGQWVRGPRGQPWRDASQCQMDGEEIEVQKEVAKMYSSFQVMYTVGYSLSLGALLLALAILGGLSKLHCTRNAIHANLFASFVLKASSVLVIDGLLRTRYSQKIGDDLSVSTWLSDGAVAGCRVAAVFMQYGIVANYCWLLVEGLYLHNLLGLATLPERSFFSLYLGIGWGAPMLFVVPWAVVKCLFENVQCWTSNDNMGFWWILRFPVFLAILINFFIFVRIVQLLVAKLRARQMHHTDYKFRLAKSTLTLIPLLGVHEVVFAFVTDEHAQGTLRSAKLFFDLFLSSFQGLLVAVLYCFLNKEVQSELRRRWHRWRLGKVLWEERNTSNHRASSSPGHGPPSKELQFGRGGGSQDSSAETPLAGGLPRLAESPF
The target in test [3] is T2, Human glucagon receptor extracellular domain human Fc fusion protein (human, UniProt P47871 26-136, limits assumed).
T2 construct: also called glucagon receptor Fc fusion protein; not shown: human Fc
T2 sequence (P47871 26-136 limits assumed): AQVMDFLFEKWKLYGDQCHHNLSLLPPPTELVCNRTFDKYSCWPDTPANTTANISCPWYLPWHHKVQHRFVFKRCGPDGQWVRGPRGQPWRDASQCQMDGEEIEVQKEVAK
The experiment in a line: SPR (Biacore T200), receptor-Fc captured on anti-human Fc chip, mAb5 Fab as analyte, 37° C. How it is done: (§1) An anti-human Fc sensor chip was prepared by activating all flow cells of a Biacore CM4 sensor chip with a 1:1 (v/v) mixture of 400 mM EDC and 100 mM NHS for 7 minutes, at a flow rate of 10 μL/min. Goat anti-human Fc antibody (Southern Biotech) was diluted to 50 μg/mL in 10 mM sodium acetate pH 5.0 and injected on all flow cells for 7 minutes at 20 μL/min. All flow cells were blocked with 100 mM ethylenediamine in 150 mM borate buffer pH 8.5 for 7 minutes at 10 μL/min. The running buffer for this immobilization procedure was 10 mM HEPES, 150 mM NaCl, 0.05% (v/v) TWEEN® 20, pH 7.4.
(§2) The following kinetics experiments were performed at 25° C. and 37° C. using a running buffer of 10 mM HEPES, 150 mM NaCl, 0.05% (v/v) TWEEN® 20, pH 7.4, 1 mg/mL BSA.
(§3) All experiments were performed on a Biacore™ T200 surface Plasmon resonance biosensor (GE Lifesciences, Piscataway N.J.). Human and cynomolgus monkey (cyno) glucagon receptor extracellular domain human Fc fusion proteins were captured onto downstream flow cells (flow cells 2, 3, respectively) at 2 μg/mL at a flow rate of 10 μL/min for 3 minutes. Flow cell 1 was used as a blank reference surface. Following capture of glucagon receptor Fc fusion proteins, analyte (buffer, or mAb5 Fab) was injected at 30 μL/min on all flow cells for two minutes. Multiple mAb5 Fab analyte concentrations were tested. The mAb5 Fab analyte concentrations were 0.16, 0.8, 4, 20 and 100 nM. After the analyte injection, dissociation was monitored for 10 minutes (for the 20 nM and 100 nM mAb5 Fab analyte samples) or 30 seconds (for the 0.16, 0.8, and 4 nM mAb5 Fab analyte samples). Dissociation was monitored for 30 seconds and 10 minutes for buffer analyte cycles. Following analyte binding and dissociation all flow cells were regenerated with four 1-minute injections of 75 mM phosphoric acid. The sensorgram data were double referenced prior to curve fitting (double referencing as described in Myszka, D. G., 1999, J. Mol. Recognit., 12:279-284. The double referenced sensorgrams were fit globally to a simple 1:1 Langmuir with mass transport binding model using the Biacore™ T200 evaluation software. The binding affinity data for anti-glucagon receptor antagonist antibody mAb5 binding to human and cyno glucagon receptor are shown below in Table 4.
In general terms: In SPR one partner is held on a chip, and binding of the other changes the refractive index at the surface.

Test [4] has as its target T3, Cynomolgus monkey (cyno) glucagon receptor extracellular domain human Fc fusion protein (cynomolgus monkey).
T3 construct: extracellular domain
Described as above. Here is the method: as §1, §2, §3

Test [5] deals with T3, Cynomolgus monkey (cyno) glucagon …. The experiment in a line: SPR (Biacore T200), receptor-Fc captured on anti-human Fc chip, mAb5 Fab as analyte, 25° C.; dissociation too slow, limit reported. How it is done: as §1, §2
(§4) All experiments were performed on a Biacore™ T200 surface Plasmon resonance biosensor (GE Lifesciences, Piscataway N.J.). Human and cynomolgus monkey (cyno) glucagon receptor extracellular domain human Fc fusion proteins were captured onto downstream flow cells (flow cells 2, 3, respectively) at 2 μg/mL at a flow rate of 10 μL/min for 3 minutes. […] After the analyte injection, dissociation was monitored for 10 minutes (for the 20 nM and 100 nM mAb5 Fab analyte samples) or 30 seconds (for the 0.16, 0.8, and 4 nM mAb5 Fab analyte samples). Dissociation was monitored for 30 seconds and 10 minutes for buffer analyte cycles. […]

The target is the same in test [6]. The experiment in a line: SPR (Biacore T200), receptor-Fc captured on anti-human Fc chip, mAb5 Fab as analyte, 25° C.; limit reported. How it is done:
as §1, §2, §4

Test [7] addresses T2, Human glucagon receptor extracellular …. The experiment in a line: SPR (Biacore T200), receptor-Fc captured on anti-human Fc chip, mAb5 Fab as analyte, 25° C. How it is done: as §1, §2, §3
Test [8] addresses T3, Cynomolgus monkey (cyno) glucagon …. Described as above. How it is done: as §1, §2, §3
For test [9], the target named is T1, glucagon receptor (target of the KD / …). Description: not stated (column of Table 1B).
Test [10] has the same target. Description: not stated; 37° C.
For test [11] the target is unchanged. Description: not stated; 37° C. (entry printed a second time).

T1 sequence (P47871 26-136 limits assumed): as above

B1: mAb4 (antibody, V domains shown)
VH: QVQLVQSGAEVKKPGASVKVSCKASGYTFTSSLIHWVRQAPGQGLEWMGYINPYNDGTKYNEKFKGRVTMTRDTSTSTVYMELSSLRSEDTAVYYCARMDYGNLWYFDVWGQGTLVTVSS
VL: EIVLTQSPATLSLSPGERATLSCRASENIYYSLAWYQQKPGQAPRLLIYNANSLEDGIPARFSGSGSGTDFTLTISSLEPEDFAVYYCKQAYDVPFTFGGGTKVEIK
As usually defined, the Kd is the concentration at which binding is half-saturated. Turning to B1, the equilibrium dissociation constant (Kd) in [1] was 10.2 nM.

B2: anti-glucagon receptor antagonist antibody mAb5 (antibody, V domains shown)
VH: QVQLVQSGAEVKKPGASVKVSCKASGYTFTDFSVHWVRQAPGQGLEWMGWINTETDETSYADDFKGRVTMTRDTSTSTVYMELSSLRSEDTAVYYCVKSRYWSYGPPDYWGQGTTVTVSS
VL: DIQMTQSPSSLSASVGDRVTITCQASQNIRTAVVWYQQKPGKAPKLLIYLASNRHSGVPSRFSGSGSGTDFTFTISSLQPEDIATYYCLQHWTYPFTFGGGTKVEIKR
notes: Fluorescence-labeled in the yeast display experiment
With B2, in test [1], the affinity, expressed as Kd, was 0.224 nM. In addition, the “IC50 (read off the curve)” value in test [2] is approximately 1 µg/mL.

B3: mAb5 Fab (Fab, V domains shown)
VH: QVQLVQSGAEVKKPGASVKVSCKASGYTFTDFSVHWVRQAPGQGLEWMGWINTETDETSYADDFKGRVTMTRDTSTSTVYMELSSLRSEDTAVYYCVKSRYWSYGPPDYWGQGTTVTVSS
VL: DIQMTQSPSSLSASVGDRVTITCQASQNIRTAVVWYQQKPGKAPKLLIYLASNRHSGVPSRFSGSGSGTDFTFTISSLQPEDIATYYCLQHWTYPFTFGGGTKVEIK
notes: also called Fab of anti-glucagon receptor antagonist antibody mAb5
As a reminder, the koff is the first-order rate constant of dissociation. For orientation: kon means the rate constant with which the complex forms. As for B3, the Kd is 0.75 nM in test [3], 0.72 nM in [4], less than 0.17 nM in test [6] and 0.22 nM in test [7]. Moreover, the off-rate (koff) in [3] was 0.00049 s⁻¹; in [4], 0.00054 s⁻¹; in test [5] it was less than 8.5e-05 s⁻¹; in test [7] it was 0.0001 s⁻¹. In addition, the on-rate constant (kon) amounted to 650000 M⁻¹ s⁻¹ in [3], 750000 M⁻¹ s⁻¹ in test [4], 460000 M⁻¹ s⁻¹ in [7] and 500000 M⁻¹ s⁻¹ in test [8]. The t1/2 in test [3] is 0.4 h; in test [4], 0.35 h; in test [6], more than 2.27 h; in [7], 1.93 h.

B4: mAb2 (antibody, V domains shown)
VH: QVQLVQSGAEVKKPGASVKVSCKASGYTFTDFSVHWVRQAPGQGLEWMGWINTETDETSYADDFKGRVTMTRDTSTSTVYMELSSLRSEDTAVYYCVKSRGWSYGPPDYWGQGTTVTVSS
VL: DIQMTQSPSSLSASVGDRVTITCRASQNIRTAVVWYQQKPGKAPKLLIYLATNRHSGVPSRFSGSGSGTDFTFTISSLQPEDIATYYCLQHWTYPFSFGGGTKLEIK
For B4, in test [1], the “T½” value was found to be 5.75 min.

B5: FF2-H2RG (antibody, V domains shown)
VH: QVQLVQSGAEVKKPGASVKVSCKASGYTFTDFSVHWVRQAPGQGLEWMGWINTETRGTSYADDFKGRVTMTRDTSTSTVYMELSSLRSEDTAVYYCVKSLYWSYGPPDYWGQGTTVTVSS
VL: DIQMTQSPSSLSASVGDRVTITCQASQNIRTAVVWYQQKPGKAPKLLIYLASNRHSGVPSRFSGSGSGTDFTFTISSLQPEDIATYYCLQHWTYPFTFGGGTKVEIK
Turning to B5, binding in test [9] was put at a Kd of 0.187 nM.

B6: H2-C8-H3-2 (antibody, V domains shown)
VH: QVQLVQSGAEVKKPGASVKVSCKASGYTFTDFSVHWVRQAPGQGLEWMGWINTETRGTSYADDFKGRVTMTRDTSTSTVYMELSSLRSEDTAVYYCVKSLFWSYGPPDYWGQGTTVTVSS
VL: DIQMTQSPSSLSASVGDRVTITCRASQNIRTAVVWYQQKPGKAPKLLIYLATNRHSGVPSRFSGSGSGTDFTFTISSLQPEDIATYYCLQHWTYPFSFGGGTKLEIK
On to B6, for which the T½ in [10] and in [11] was 6.89 h in each case.

B7: H2-C8-H3-3 (antibody, V domains shown)
VH: QVQLVQSGAEVKKPGASVKVSCKASGYTFTDFSVHWVRQAPGQGLEWMGWINTETRGTSYADDFKGRVTMTRDTSTSTVYMELSSLRSEDTAVYYCVKSLYWSYGPPDYWGQGTTVTVSS
VL: DIQMTQSPSSLSASVGDRVTITCRASQNIRTAVVWYQQKPGKAPKLLIYLATNRHSGVPSRFSGSGSGTDFTFTISSLQPEDIATYYCLQHWTYPFSFGGGTKLEIK
B7: the T½ in test [10] and in test [11] was 12.4 h throughout.

B8: FF2-H2WT (antibody, V domains shown)
VH: QVQLVQSGAEVKKPGASVKVSCKASGYTFTDFSVHWVRQAPGQGLEWMGWINTETDETSYADDFKGRVTMTRDTSTSTVYMELSSLRSEDTAVYYCVKSLYWSYGPPDYWGQGTTVTVSS
VL: DIQMTQSPSSLSASVGDRVTITCQASQNIRTAVVWYQQKPGKAPKLLIYLASNRHSGVPSRFSGSGSGTDFTFTISSLQPEDIATYYCLQHWTYPFTFGGGTKVEIK
As to B8, the Kd in [9] was less than 0.2 nM.

B9: FF2-H3RY (antibody, V domains shown)
VH: QVQLVQSGAEVKKPGASVKVSCKASGYTFTDFSVHWVRQAPGQGLEWMGWINTEYDFTSYADDFKGRVTMTRDTSTSTVYMELSSLRSEDTAVYYCVKSRYWSYGPPDYWGQGTTVTVSS
VL: DIQMTQSPSSLSASVGDRVTITCQASQNIRTAVVWYQQKPGKAPKLLIYLASNRHSGVPSRFSGSGSGTDFTFTISSLQPEDIATYYCLQHWTYPFTFGGGTKVEIK
In turn, B9 showed a Kd in [9] of less than 0.125 nM.

B10: FF2-H2WT H3RY (antibody, V domains shown)
VH: QVQLVQSGAEVKKPGASVKVSCKASGYTFTDFSVHWVRQAPGQGLEWMGWINTETDETSYADDFKGRVTMTRDTSTSTVYMELSSLRSEDTAVYYCVKSRYWSYGPPDYWGQGTTVTVSS
VL: DIQMTQSPSSLSASVGDRVTITCQASQNIRTAVVWYQQKPGKAPKLLIYLASNRHSGVPSRFSGSGSGTDFTFTISSLQPEDIATYYCLQHWTYPFTFGGGTKVEIK
In test [9], B10 returned a Kd of 0.224 nM.

B11: H2-A11-H3-4 (antibody, V domains shown)
VH: QVQLVQSGAEVKKPGASVKVSCKASGYTFTDFSVHWVRQAPGQGLEWMGWINTEYDFTSYADDFKGRVTMTRDTSTSTVYMELSSLRSEDTAVYYCVKSRWWSYGPPDYWGQGTTVTVSS
VL: DIQMTQSPSSLSASVGDRVTITCRASQNIRTAVVWYQQKPGKAPKLLIYLATNRHSGVPSRFSGSGSGTDFTFTISSLQPEDIATYYCLQHWTYPFSFGGGTKLEIK
On to B11, for which the T½ in test [10] and in [11] was 6.36 h each time.

B12: mAb1 (antibody, V domains shown)
VH: QIQLVQSGPELKKPGETVKISCKASGYTFTDFSIHWVKQAPGKGLKWMGWINTETDESTYADDFKGRFAFSLETSASTAYLQINNLKNEDTATYFCVKSRGWTYGPPDYWGQGTTLTVSS
VL: DIVMTQSQKFMSASVGDRVSITCKASQNVRTAVVWFQQKPGQSPNTLIYLASNRHSEVPDRFTGSGSGTDFTLTISNVQSEDLADYFCLQHWTYPFTFASGTKLEIK
In [1], B12 gave a Kd of 0.64 nM.
